In this experiment the target is Foxn1 having a Flag tag (expressed from the Foxn1 expression vector, CMV promoter, in mouse epidermal cells). Put plainly: cell-based or functional assay.

“AFF-4 having a C-Myc tag (expressed from the AFF-4 expression vector, CMV promoter, in mouse epidermal cells)” yielded an expression level of luciferase (reporter with a Foxn1 binding region upstream of an SV40 minimum promoter), relative to Foxn1 only = 1 of 5 fold.

The values above are taken from US20110076303A1.
